Assays:
[1] = biological target: CwlDΔ25-His6 (soluble domain of C. difficile CwlD amidase, His-tagged) (Clostridioides difficile); test: SEC; Superdex 200 Increase 10/300 GL; 200 mM NaCl, 10 mM Tris HCl pH 7.5, 5% glycerol, 1 mM DTT; fractions on SDS-PAGE with Coomassie; complexes also run after 1 h at 4°C with fivefold excess ZnCl2 or 1 mM EDTA
[2] = biological target: GerSΔ22-His6 (Clostridioides difficile); test: dynamic light scattering; DynaPro Protein Solutions DLS instrument; purified GerS, CwlD and SEC-purified CwlD:GerS complex
[3] = biological target: GerSΔ22-His6 (Clostridioides difficile); test: SEC; Superdex 200 Increase 10/300 GL; 200 mM NaCl, 10 mM Tris HCl pH 7.5, 5% glycerol, 1 mM DTT; fractions on SDS-PAGE with Coomassie; complexes also run after 1 h at 4°C with fivefold excess ZnCl2 or 1 mM EDTA
[4] = biological target: CwlDΔ25-His6 (soluble domain of C. difficile CwlD amidase, His-tagged) (Clostridioides difficile); test: pull-down; co-affinity purification: His-tagged CwlD and untagged GerS co-produced in E. coli, captured on Ni-NTA agarose (500 mM NaCl, Tris pH 7.5, 15 mM imidazole, 10% glycerol, 2 mM ß-mercaptoethanol), eluted with 200 mM imidazole, Coomassie staining
[5] = biological target: GerSΔ22 (soluble domain of C. difficile GerS lipoprotein, untagged) (Clostridioides difficile); test: crystal structure; SEC-purified CwlD:GerS complex; hanging drop at 18°C, 50 mM BisTris pH 7.5, PEG 3350 12–18%, 5% glycerol, 0.25 M ammonium nitrate; 2.4 Å
[6] = biological target: CwlD_(E199A)-His6 (Clostridioides difficile); test: SEC; Superdex 200 Increase 10/300 GL; 200 mM NaCl, 10 mM Tris HCl pH 7.5, 5% glycerol, 1 mM DTT; fractions on SDS-PAGE with Coomassie; complexes also run after 1 h at 4°C with fivefold excess ZnCl2 or 1 mM EDTA
[7] = biological target: CwlD_(E65A)-His6 (Clostridioides difficile); test: as above
[8] = biological target: CwlD_(H49A)-His6 (Clostridioides difficile); test: as above
[9] = biological target: CwlD_(R169D)-His6 (Clostridioides difficile); test: pull-down; co-affinity purification: His-tagged CwlD and untagged GerS co-produced in E. coli, captured on Ni-NTA agarose (500 mM NaCl, Tris pH 7.5, 15 mM imidazole, 10% glycerol, 2 mM ß-mercaptoethanol), eluted with 200 mM imidazole, Coomassie staining
[10] = biological target: CwlD_(R169Q)-His6 (Clostridioides difficile); test: as above
[11] = biological target: FLAG-tagged CwlD_(E199A) (Clostridioides difficile); test: co-IP; lysates of C. difficile sporulating for 22 h; FLAG IP buffer (50 mM Tris pH 7.5, 150 mM NaCl) with 0.1% NP-40; anti-FLAG magnetic resin, 1 h at room temperature; eluted with FLAG peptide; GerS detected by anti-GerS blot
[12] = biological target: FLAG-tagged CwlD_(H49A) (Clostridioides difficile); test: as above
[13] = biological target: FLAG-tagged CwlD_(R169D) (Clostridioides difficile); test: as above

Substance: CwlDΔ25-His6 (soluble domain of C. difficile CwlD amidase, His-tagged) (domain or fragment)
- stoichiometry N [1]: 2

Substance: GerSΔ22-His6 (domain or fragment)
- stoichiometry N [2]: 2
- stoichiometry N [3]: 2

Substance: GerS_(D106A), untagged (domain or fragment)
- reduction of GerS co-purification relative to the wild-type complex [4]: 90%

Substance: GerSΔ22 (soluble domain of C. difficile GerS lipoprotein, untagged) (domain or fragment)
- stoichiometry N [5]: 2
- stoichiometry N [6]: 1
- stoichiometry N [7]: 1
- stoichiometry N [8]: 1
- stoichiometry N [1]: 1
- reduction of GerS co-purification relative to the wild-type complex [9]: 90%
- reduction of GerS co-purification relative to the wild-type complex [10]: 90%

Substance: GerS_(D106R), untagged (domain or fragment)
- reduction of GerS co-purification relative to the wild-type complex [4]: 90%

Substance: GerS, cleaved form (GerS-c), untagged, in sporulating C. difficile (natural protein)
- decrease of GerS pulled down relative to wild-type FLAG-tagged CwlD [11]: 40%
- fold reduction of GerS pulled down relative to wild-type FLAG-tagged CwlD [12]: 5 fold
- fold reduction of GerS pulled down relative to wild-type FLAG-tagged CwlD [13]: 5 fold
